Assay results: article PMC8960383, “A Nanobody-Based Toolset to Monitor and Modify the Mitochondrial GTPase Miro1” (Frontiers in Molecular Biosciences, 2022)
Values belong to the binder of their own block, whether it stands above or below them.

Key:
GFP-Miro1 (human) = GFP-Miro1 (human) (UniProt Q8IXI2)
[1] = biological target: endogenous Miro1 (human (endogenous in HEK293 and HeLa)) (UniProt Q8IXI2)
eGFP-cGTPase-TMD [2] = biological target: T1, eGFP-cGTPase-TMD (Homo sapiens, UniProt Q8IXI2); test: pull-down; Nbs coupled to NHS-Sepharose (nanotraps) incubated 16 h at 4°C with the soluble fraction of HEK293 cells transiently expressing GFP-Miro1, GFP-tagged Miro1 deletion constructs or GFP (lysis buffer with 1% Triton X-100); immunoblot of bound fractions with anti-GFP and anti-GAPDH; details: one partner purified
T1 construct: human Miro1 isoform 1 (UniProtKB Q8IXI2-1), C-terminal GTPase domain with the transmembrane domain; made from the GFP-Miro1 plasmid by site directed mutagenesis; also called C-terminal GTPase domain of Miro1; source: HEK293, transfected, in lysate; HeLa, transfected, in living cells; not shown: GFP, N-terminal, kept
T1 sequence (Q8IXI2 whole entry, looked up, the tested form may be a part, canonical isoform): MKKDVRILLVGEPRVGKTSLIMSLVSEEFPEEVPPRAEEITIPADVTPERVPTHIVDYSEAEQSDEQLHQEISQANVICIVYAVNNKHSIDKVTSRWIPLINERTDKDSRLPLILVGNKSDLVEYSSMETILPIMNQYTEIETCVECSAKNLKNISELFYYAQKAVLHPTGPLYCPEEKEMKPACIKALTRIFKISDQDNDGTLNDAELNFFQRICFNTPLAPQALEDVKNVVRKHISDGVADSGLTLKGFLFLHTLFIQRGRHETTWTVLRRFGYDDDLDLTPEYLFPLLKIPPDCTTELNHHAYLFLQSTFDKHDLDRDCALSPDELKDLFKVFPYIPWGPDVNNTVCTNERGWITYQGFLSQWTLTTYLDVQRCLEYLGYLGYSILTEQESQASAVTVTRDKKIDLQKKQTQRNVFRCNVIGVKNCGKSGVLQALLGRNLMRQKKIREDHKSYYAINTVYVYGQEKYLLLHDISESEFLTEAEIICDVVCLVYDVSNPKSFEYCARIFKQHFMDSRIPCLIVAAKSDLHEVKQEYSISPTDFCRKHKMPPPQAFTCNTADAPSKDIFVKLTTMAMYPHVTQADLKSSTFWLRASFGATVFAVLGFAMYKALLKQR

eGFP-cGTPase-TMD [3] = biological target: T1, eGFP-cGTPase-TMD; test: live-cell fluorescence imaging (relocalisation of the chromobody); TagRFP chromobodies transiently co-expressed with GFP-Miro1 or GFP-tagged Miro1 deletion constructs in HeLa cells; details: partners not purified
Miro1 isoform 2 = biological target: T2, Miro1 isoform 2 (Homo sapiens (endogenous, HEK293), UniProt Q8IXI2-2); test: affinity purification with mass spectrometry; mono- and bivalent M41 and M114 nanotraps incubated with HEK293 lysate, compared to control nanotraps; three technical replicates; label-free quantification, iBAQ; details: one partner purified
T2 construct: endogenous human Miro1 isoform 2, identified by mass spectrometry (search against the Uniprot Homo sapiens database; one unique peptide); source: endogenous, HEK293 lysate
T2 sequence (Q8IXI2 other isoform, or with tags, fused parts or gaps): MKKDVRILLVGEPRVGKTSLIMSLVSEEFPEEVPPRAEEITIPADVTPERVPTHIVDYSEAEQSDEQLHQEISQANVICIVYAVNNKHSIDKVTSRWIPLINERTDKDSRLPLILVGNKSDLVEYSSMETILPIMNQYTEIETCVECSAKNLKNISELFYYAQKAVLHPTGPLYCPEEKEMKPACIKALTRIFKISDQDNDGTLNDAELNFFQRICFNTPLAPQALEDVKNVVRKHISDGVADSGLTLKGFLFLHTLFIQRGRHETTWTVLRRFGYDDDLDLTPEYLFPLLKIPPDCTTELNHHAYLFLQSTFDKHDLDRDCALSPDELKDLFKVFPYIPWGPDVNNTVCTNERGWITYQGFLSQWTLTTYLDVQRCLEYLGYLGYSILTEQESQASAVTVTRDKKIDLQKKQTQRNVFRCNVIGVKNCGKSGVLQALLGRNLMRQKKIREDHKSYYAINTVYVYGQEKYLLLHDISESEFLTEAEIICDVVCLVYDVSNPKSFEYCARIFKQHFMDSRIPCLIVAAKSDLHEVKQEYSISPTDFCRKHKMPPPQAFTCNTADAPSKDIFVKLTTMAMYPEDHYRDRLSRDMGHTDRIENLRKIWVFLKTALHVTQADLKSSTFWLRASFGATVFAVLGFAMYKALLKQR

Miro1 isoform 3 = biological target: T3, Miro1 isoform 3 (Homo sapiens (endogenous, HEK293), UniProt Q8IXI2-3); test: as above; details: one partner purified
T3 construct: endogenous human Miro1 isoform 3, identified by mass spectrometry (search against the Uniprot Homo sapiens database; 31 razor peptides); source: endogenous, HEK293 lysate
T3 sequence (Q8IXI2 other isoform, or with tags, fused parts or gaps): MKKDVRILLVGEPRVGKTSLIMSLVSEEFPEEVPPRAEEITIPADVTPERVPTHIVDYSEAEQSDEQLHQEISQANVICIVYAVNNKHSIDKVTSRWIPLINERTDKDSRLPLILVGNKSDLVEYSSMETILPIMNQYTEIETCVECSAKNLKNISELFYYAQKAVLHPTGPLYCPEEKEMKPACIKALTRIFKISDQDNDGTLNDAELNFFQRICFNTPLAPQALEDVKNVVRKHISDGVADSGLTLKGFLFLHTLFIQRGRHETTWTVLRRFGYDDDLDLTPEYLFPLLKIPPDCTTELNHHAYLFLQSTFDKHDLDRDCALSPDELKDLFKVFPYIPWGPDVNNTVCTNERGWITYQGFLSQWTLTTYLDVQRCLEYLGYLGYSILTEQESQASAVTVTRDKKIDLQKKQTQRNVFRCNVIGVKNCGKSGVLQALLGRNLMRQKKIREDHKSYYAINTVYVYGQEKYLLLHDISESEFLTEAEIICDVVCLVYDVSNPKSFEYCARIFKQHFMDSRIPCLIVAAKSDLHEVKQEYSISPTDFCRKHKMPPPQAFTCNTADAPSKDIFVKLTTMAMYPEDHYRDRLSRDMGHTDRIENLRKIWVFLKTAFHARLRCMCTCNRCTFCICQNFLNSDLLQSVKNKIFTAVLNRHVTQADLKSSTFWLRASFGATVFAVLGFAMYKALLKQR

endogenous Miro1 (human (endogenous in HEK293 and HeLa)), sequence (Q8IXI2 whole entry): as the sequence (Q8IXI2 whole entry, looked up, the tested form may be a part, canonical isoform) above
GFP-Miro1 (human), sequence (Q8IXI2 whole entry): as the sequence (Q8IXI2 whole entry, looked up, the tested form may be a part, canonical isoform) above

reduction of the GFP signal in HeLa cells coexpressing the Fbox-Nb construct and GFP-Miro1 (targeted degradation) (GFP-Miro1 (human)): 50%
decrease of the anti-Miro1 IF signal in HeLa cells 24 h after transfection of the Fbox-Nb (targeted degradation of endogenous Miro1; Fbox-NR control less than ∼4%) [1]: 16%
B1: Fbox-M41 (VHH)
VHH: EVQLVESGGGLVHPGGSLRISCAASGFSFNSSAMSWARQAPGKGLEWVSGIQADGTTGYAHSVKGRFNISRDNAKNIVYLQMSSLKPEDSAVYYCAKEGWSTVVFGSRDYWGQGTQVTVSS

binding result (eGFP-cGTPase-TMD [2]): binds
B2: Miro1-specific nanobody M41 (VHH)
VHH: B1 VHH
notes: Cloned into pHEN6C; also called M41-Nb; M41 nanotrap; source: E. coli, purified (IMAC, SEC)

binding result (eGFP-cGTPase-TMD [3]): binds
B3: M41 chromobody (VHH)
VHH: B1 VHH
notes: as the VHH of m10 (M41); cloned into the plasmid described as PCNA-chromobody (Panza et al., 2015); also called M41-Cb; source: HeLa, transfected, in living cells

binding result (eGFP-cGTPase-TMD [2]): binds
B4: Miro1-specific nanobody M11 (VHH)
VHH: QVQLVESGGGSVQPGGSLRLSCAASGFSFSSNVMSWARQAPGKGLEWVSGIYVDGRTHYADSVKGRFTISRDNAKNTVYLQMNSLKPEDTAVYYCAAAGDLSGYSFSPYDYDYWGQGTQVTVSS
notes: Cloned into pHEN6C; also called M11-Nb; M11 nanotrap; source: E. coli, purified (IMAC, SEC)

binding result (eGFP-cGTPase-TMD [2]): binds
B5: Miro1-specific nanobody M85 (VHH)
VHH: DVQLVESGGGKVQSGGSLRLSCAASGSKLDDYSIGWFRQAPGKGREGISCITMKTGSFEYVDSVKGRFTISADNAKNTVHLQMNNLKPEDTGIYYCAALRSRGLFCVTSPYEYDLWGQGSPVTVSS
notes: Cloned into pHEN6C; also called M85-Nb; M85 nanotrap; source: E. coli, purified (IMAC, SEC)

binding result (eGFP-cGTPase-TMD [3]): binds
B6: M85 chromobody (VHH)
VHH: B5 VHH
notes: as the VHH of m11 (M85); cloned into the plasmid described as PCNA-chromobody (Panza et al., 2015); also called M85-Cb; source: HeLa, transfected, in living cells

reduction of the GFP signal in HeLa cells coexpressing the Fbox-Nb construct and GFP-Miro1 (targeted degradation) (GFP-Miro1 (human)): 80%
decrease of the anti-Miro1 IF signal in HeLa cells 24 h after transfection of the Fbox-Nb (targeted degradation of endogenous Miro1; Fbox-NR control less than ∼4%) [1]: 30%
B7: Fbox-M114 (VHH)
VHH: EVQLQESGGGLVQPGGSLRLSCTASGFPVSSAAMSWARQSPGKELEWVSGIYTDGSADYADSLKGRFTISRDDVENTINLQMNSLKPEDTAVYYCKTDWWAGPSGYVAVWGQGTLVTVSS

binding result (Miro1 isoform 2): binds
binding result (Miro1 isoform 3): binds
binding result (eGFP-cGTPase-TMD [2]): binds
B8: Miro1-specific nanobody M114 (VHH)
VHH: B7 VHH
notes: Cloned into pHEN6C; also called M114-Nb; M114 nanotrap; source: E. coli, purified (IMAC, SEC)

binding result (eGFP-cGTPase-TMD [3]): binds
B9: M114 chromobody (VHH)
VHH: B7 VHH
notes: as the VHH of m12 (M114); cloned into the plasmid described as PCNA-chromobody (Panza et al., 2015); also called M114-Cb; M114-CB; source: HeLa, transfected, in living cells

binding result (eGFP-cGTPase-TMD [2]): binds
B10: Miro1-specific nanobody M189 (VHH)
VHH: EVQLVESGGGLVQPGGSLRLSCTASGFPVSSAAMSWARQSPGKELEWVSGIYTDGSADYADSLKGRFTISRDDVENTINLQMNNLKPEDTAIYYCNANFFEGSWYDYWGQGSPVTVSS
notes: Cloned into pHEN6C; also called M189-Nb; M189 nanotrap; source: E. coli, purified (IMAC, SEC)
